Measurements published in the supplement of paper PMC9233669.
Variants at the floor of the assay were thinned out.

Legend:
[1] = test system: biotinyl-Phe-oxazolone; experiment: self-aminoacylation, catalytic enhancement (BFO) (fold over background); higher = more active; k-Seq, kA / k0A0; sequences stand for … in GGGAAUGGAUCCACAUCUACGAAUUC…UUCACUGCAGACUUGACGAAGCUG
In short: (§1)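 The uncatalyzed rate is the low-activity peak of a bimodal Gaussian fit, and catalytic enhancement is median kA divided by it. The kA values came from pseudo-first-order fits, with 1000 bootstraps, of per-sequence fraction reacted measured by streptavidin capture, triplicate qPCR and Illumina sequencing. Mutagenized RNA pools with a 21-nt variable region (0.43 μM) were reacted with each biotinyl-aminoacyl-oxazolone at 2–1250 μM in 50 μL HEPES/NaCl/KCl/MgCl2/CaCl2 buffer with 5% acetonitrile, pH 6.9–7.0, for 90 minutes at room temperature.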

[2] = test system: biotinyl-Ile-oxazolone; experiment: self-aminoacylation, catalytic enhancement (BIO) (fold over background); higher = more active; k-Seq, kA / k0A0; sequences stand for … in GGGAAUGGAUCCACAUCUACGAAUUC…UUCACUGCAGACUUGACGAAGCUG
In short: as §1

[3] = test system: biotinyl-Val-oxazolone; experiment: self-aminoacylation, catalytic enhancement (BVO) (fold over background); higher = more active; k-Seq, kA / k0A0; sequences stand for … in GGGAAUGGAUCCACAUCUACGAAUUC…UUCACUGCAGACUUGACGAAGCUG
In short: as §1

[4] = test system: biotinyl-Leu-oxazolone; experiment: self-aminoacylation, catalytic enhancement (BLO) (fold over background); higher = more active; k-Seq, kA / k0A0; sequences stand for … in GGGAAUGGAUCCACAUCUACGAAUUC…UUCACUGCAGACUUGACGAAGCUG
In short: as §1

[5] = test system: biotinyl-Trp-oxazolone; experiment: self-aminoacylation, catalytic enhancement (BWO) (fold over background); higher = more active; k-Seq, kA / k0A0; sequences stand for … in GGGAAUGGAUCCACAUCUACGAAUUC…UUCACUGCAGACUUGACGAAGCUG
In short: as §1

[6] = test system: biotinyl-Met-oxazolone; experiment: self-aminoacylation, catalytic enhancement (BMO) (fold over background); higher = more active; k-Seq, kA / k0A0; sequences stand for … in GGGAAUGGAUCCACAUCUACGAAUUC…UUCACUGCAGACUUGACGAAGCUG
In short: as §1

## AAGGUUGCUAAGAGUCGCAAG [Fam3.1 aminoacylation ribozyme variant]
[1]
  self-aminoacylation: 1.9
[2]
  self-aminoacylation: 1.17
[3]
  self-aminoacylation: 1.03
[4]
  self-aminoacylation: 1.1
[5]
  self-aminoacylation: 1.57
[6]
  self-aminoacylation: 0.884

## AAGGUUGCUAAUAGCCGCAAG [Fam3.1 aminoacylation ribozyme variant]
[1]
  self-aminoacylation: 1.49
[2]
  self-aminoacylation: 1.57
[3]
  self-aminoacylation: 1.28
[4]
  self-aminoacylation: 1.31
[5]
  self-aminoacylation: 1.41
[6]
  self-aminoacylation: 1.06

## AAGGUUGCUAAUAGUCGCAAG [Fam3.1 aminoacylation ribozyme variant]
[1]
  self-aminoacylation: 6.56
[2]
  self-aminoacylation: 1.32
[3]
  self-aminoacylation: 1.23
[4]
  self-aminoacylation: 1.25
[5]
  self-aminoacylation: 2.64
[6]
  self-aminoacylation: 1.29

## AAGGUUGCUAAUAGUCGCAUG [Fam3.1 aminoacylation ribozyme variant]
[1]
  self-aminoacylation: 2.16
[2]
  self-aminoacylation: 1.66
[3]
  self-aminoacylation: 1.34
[4]
  self-aminoacylation: 1.45
[5]
  self-aminoacylation: 2
[6]
  self-aminoacylation: 1.34

## AAGGUUGCUAUUAGUCGCAAG [Fam3.1 aminoacylation ribozyme variant]
[1]
  self-aminoacylation: 2.24
[2]
  self-aminoacylation: 1.66
[3]
  self-aminoacylation: 1.18
[4]
  self-aminoacylation: 1.56
[5]
  self-aminoacylation: 1.53
[6]
  self-aminoacylation: 1.3

## AAGGUUGUUAAUAGUCGCAAG [Fam3.1 aminoacylation ribozyme variant]
[1]
  self-aminoacylation: 2.51
[2]
  self-aminoacylation: 1.86
[3]
  self-aminoacylation: 1.39
[4]
  self-aminoacylation: 1.69
[5]
  self-aminoacylation: 1.53
[6]
  self-aminoacylation: 1.72

## AAGUAUGCAAAUAGUCGCAAG [Fam3.1 aminoacylation ribozyme variant]
[1]
  self-aminoacylation: 1.55
[2]
  self-aminoacylation: 1.17
[3]
  self-aminoacylation: 1.05
[4]
  self-aminoacylation: 1.02
[5]
  self-aminoacylation: 1.76
[6]
  self-aminoacylation: 1.06

## AAGUAUGCUAACAGUCGCAAG [Fam3.1 aminoacylation ribozyme variant]
[1]
  self-aminoacylation: 13.3
[2]
  self-aminoacylation: 1.82
[3]
  self-aminoacylation: 1.54
[4]
  self-aminoacylation: 1.45
[5]
  self-aminoacylation: 4.66
[6]
  self-aminoacylation: 1.42

## AAGUCUGCCAAUAGUCGCAAG [Fam3.1 aminoacylation ribozyme variant]
[1]
  self-aminoacylation: 1.53
[2]
  self-aminoacylation: 1.18
[3]
  self-aminoacylation: 1.06
[4]
  self-aminoacylation: 0.879
[5]
  self-aminoacylation: 1.28
[6]
  self-aminoacylation: 1.84

## AAGUCUGCUAAUAGUCGCAUG [Fam3.1 aminoacylation ribozyme variant]
[1]
  self-aminoacylation: 2.06
[2]
  self-aminoacylation: 0.998
[3]
  self-aminoacylation: 1.27
[4]
  self-aminoacylation: 1.89
[5]
  self-aminoacylation: 1.91
[6]
  self-aminoacylation: 1.72

## AAGUCUGCUAAUGGUCGCAAG [Fam3.1 aminoacylation ribozyme variant]
[1]
  self-aminoacylation: 5.79
[2]
  self-aminoacylation: 0.882
[3]
  self-aminoacylation: 0.865
[4]
  self-aminoacylation: 0.959
[5]
  self-aminoacylation: 0.919
[6]
  self-aminoacylation: 1.3

## AAGUGCGCUAAUAGUCGCAAG [Fam3.1 aminoacylation ribozyme variant]
[1]
  self-aminoacylation: 3.73
[2]
  self-aminoacylation: 1.84
[3]
  self-aminoacylation: 1.8
[4]
  self-aminoacylation: 1.38
[5]
  self-aminoacylation: 4.08
[6]
  self-aminoacylation: 1.19

## AAGUGUGCUAAUAGCCGCAAG [Fam3.1 aminoacylation ribozyme variant]
[1]
  self-aminoacylation: 3.94
[2]
  self-aminoacylation: 1.81
[3]
  self-aminoacylation: 1.48
[4]
  self-aminoacylation: 1.2
[5]
  self-aminoacylation: 2.61
[6]
  self-aminoacylation: 1.49

## AAGUGUGCUAAUAGUCGCAUG [Fam3.1 aminoacylation ribozyme variant]
[1]
  self-aminoacylation: 1.09
[2]
  self-aminoacylation: 1.38
[3]
  self-aminoacylation: 1.3
[4]
  self-aminoacylation: 1.86
[5]
  self-aminoacylation: 1.98
[6]
  self-aminoacylation: 1.44

## AAGUGUGCUAAUAGUCGCUAG [Fam3.1 aminoacylation ribozyme variant]
[1]
  self-aminoacylation: 0.823
[2]
  self-aminoacylation: 1.23
[3]
  self-aminoacylation: 0.925
[4]
  self-aminoacylation: 0.893
[5]
  self-aminoacylation: 0.788
[6]
  self-aminoacylation: 0.976

## AAGUGUGGUAAUAGUCGCAAG [Fam3.1 aminoacylation ribozyme variant]
[1]
  self-aminoacylation: 1.5
[2]
  self-aminoacylation: 1.43
[3]
  self-aminoacylation: 1.16
[4]
  self-aminoacylation: 1.48
[5]
  self-aminoacylation: 1.15
[6]
  self-aminoacylation: 1.15

## AAGUUAGCUAAUAGUCCCAAG [Fam3.1 aminoacylation ribozyme variant]
[1]
  self-aminoacylation: 2.79
[2]
  self-aminoacylation: 1.15
[3]
  self-aminoacylation: 0.967
[4]
  self-aminoacylation: 1
[5]
  self-aminoacylation: 1.1
[6]
  self-aminoacylation: 1.18

## AAGUUAGCUAAUAGUGGCAAG [Fam3.1 aminoacylation ribozyme variant]
[1]
  self-aminoacylation: 0.615
[2]
  self-aminoacylation: 0.718
[3]
  self-aminoacylation: 0.648
[4]
  self-aminoacylation: 0.554
[5]
  self-aminoacylation: 0.543
[6]
  self-aminoacylation: 0.809

## AAGUUAGCUAAUAGUUGCAAG [Fam3.1 aminoacylation ribozyme variant]
[1]
  self-aminoacylation: 1.8
[2]
  self-aminoacylation: 1.47
[3]
  self-aminoacylation: 1.33
[4]
  self-aminoacylation: 1.59
[5]
  self-aminoacylation: 2.07
[6]
  self-aminoacylation: 1.45

## AAGUUAGCUAAUAUUCGCAAG [Fam3.1 aminoacylation ribozyme variant]
[1]
  self-aminoacylation: 2.26
[2]
  self-aminoacylation: 1.78
[3]
  self-aminoacylation: 1.39
[4]
  self-aminoacylation: 1.33
[5]
  self-aminoacylation: 1.59
[6]
  self-aminoacylation: 1.43

## AAGUUCGCUAAUAGUCGCCAG [Fam3.1 aminoacylation ribozyme variant]
[1]
  self-aminoacylation: 11.6
[2]
  self-aminoacylation: 2.33
[3]
  self-aminoacylation: 1.81
[4]
  self-aminoacylation: 1.79
[5]
  self-aminoacylation: 2.27
[6]
  self-aminoacylation: 1.84

## AAGUUCGCUAAUAGUCGCGAG [Fam3.1 aminoacylation ribozyme variant]
[1]
  self-aminoacylation: 15.2
[2]
  self-aminoacylation: 3.31
[3]
  self-aminoacylation: 2.51
[4]
  self-aminoacylation: 2.18
[5]
  self-aminoacylation: 4
[6]
  self-aminoacylation: 2.09

## AAGUUCGCUAAUAGUUGCAAG [Fam3.1 aminoacylation ribozyme variant]
[1]
  self-aminoacylation: 1.71
[2]
  self-aminoacylation: 1.52
[3]
  self-aminoacylation: 1.22
[4]
  self-aminoacylation: 1.33
[5]
  self-aminoacylation: 1.12
[6]
  self-aminoacylation: 1.47

## AAGUUCGCUAUUAGUCGCAAG [Fam3.1 aminoacylation ribozyme variant]
[1]
  self-aminoacylation: 2.21
[2]
  self-aminoacylation: 2
[3]
  self-aminoacylation: 1.5
[4]
  self-aminoacylation: 2.14
[5]
  self-aminoacylation: 1.44
[6]
  self-aminoacylation: 1.82

## AAGUUGGCUAAUAGGCGCAAG [Fam3.1 aminoacylation ribozyme variant]
[1]
  self-aminoacylation: 1.49
[2]
  self-aminoacylation: 1.71
[3]
  self-aminoacylation: 1.23
[4]
  self-aminoacylation: 1.41
[5]
  self-aminoacylation: 1.19
[6]
  self-aminoacylation: 1.14
